Test results taken from patent publication US20200317817A1 (XOMA US, published 2020).
Numbering of substitutions follows the chain as printed.

T1: human PTH1R overexpressed on CHO cells (human, UniProt Q03431 27-593)
T1 sequence (looked up): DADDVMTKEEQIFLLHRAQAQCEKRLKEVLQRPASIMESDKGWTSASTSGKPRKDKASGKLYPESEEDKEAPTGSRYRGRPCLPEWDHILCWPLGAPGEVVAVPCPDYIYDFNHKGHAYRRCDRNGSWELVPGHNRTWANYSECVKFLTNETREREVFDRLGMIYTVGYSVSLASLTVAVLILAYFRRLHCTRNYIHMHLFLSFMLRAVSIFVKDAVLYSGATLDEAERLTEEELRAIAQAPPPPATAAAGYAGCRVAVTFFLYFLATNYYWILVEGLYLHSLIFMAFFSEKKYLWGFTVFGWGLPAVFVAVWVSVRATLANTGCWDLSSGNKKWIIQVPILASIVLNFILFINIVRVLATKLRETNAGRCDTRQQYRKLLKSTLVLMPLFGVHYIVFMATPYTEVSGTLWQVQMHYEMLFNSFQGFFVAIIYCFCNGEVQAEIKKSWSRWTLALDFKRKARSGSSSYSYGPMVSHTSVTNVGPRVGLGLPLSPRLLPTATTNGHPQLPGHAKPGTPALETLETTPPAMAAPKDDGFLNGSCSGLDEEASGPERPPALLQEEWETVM

T2: mouse PTH1R overexpressed on CHO cells (mouse, UniProt P41593 27-591)
T2 sequence (looked up): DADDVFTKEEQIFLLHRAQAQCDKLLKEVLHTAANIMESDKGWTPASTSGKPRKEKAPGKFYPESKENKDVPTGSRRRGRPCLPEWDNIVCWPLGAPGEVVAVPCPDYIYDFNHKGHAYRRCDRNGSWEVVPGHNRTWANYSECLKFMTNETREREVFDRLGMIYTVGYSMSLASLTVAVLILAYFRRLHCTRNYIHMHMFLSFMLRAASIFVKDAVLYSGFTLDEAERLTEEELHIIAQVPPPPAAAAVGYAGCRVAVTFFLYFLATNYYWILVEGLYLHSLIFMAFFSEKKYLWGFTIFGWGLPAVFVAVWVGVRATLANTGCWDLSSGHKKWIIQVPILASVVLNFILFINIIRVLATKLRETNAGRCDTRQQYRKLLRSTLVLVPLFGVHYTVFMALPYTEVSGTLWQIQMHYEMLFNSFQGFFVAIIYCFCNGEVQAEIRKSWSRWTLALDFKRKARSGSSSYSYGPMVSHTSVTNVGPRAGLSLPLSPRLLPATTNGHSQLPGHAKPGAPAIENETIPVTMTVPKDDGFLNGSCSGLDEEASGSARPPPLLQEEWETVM

T3: rat PTH1R on UMR106 cells (rat, UniProt P25961 27-591)
T3 sequence (looked up): T2 sequence (looked up) with P58S, L497P, I518T, N520T, I523L, T528A

T4: human PTH1R on Saos-2 cells (endogenous) (human, UniProt Q03431 27-593)
T4 sequence (looked up): T1 sequence (looked up)

T5: recombinant N-terminal extracellular domain of the human PTH1R receptor (human, UniProt Q03431 27-188, limits assumed)
T5 construct: domain: N-terminal extracellular domain; Bought reagent; also called N-ECD PTH1R; PTH1R N-terminal ECD
T5 sequence (looked up): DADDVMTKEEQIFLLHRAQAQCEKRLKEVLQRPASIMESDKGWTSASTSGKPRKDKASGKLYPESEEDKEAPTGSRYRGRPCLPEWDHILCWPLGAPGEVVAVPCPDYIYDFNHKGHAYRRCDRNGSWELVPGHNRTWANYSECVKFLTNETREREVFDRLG

B1: XPA.85.340 (antibody, V domains shown)
VH: EVQLVETGGGVVRPGGSLRLSCAASGFTFSSSAMSWVRQTPGKELQWVSAITPGGEGTYYADVVKGRFTISRDNSKDTLYLQMDSLRAEDTAVYYCARDLYGSYGDAFDIWGQGTLVTVSS
VL: SYVLTQPPSVSVAPGQTASITCSGDNLGEKFVSWYQQKAGQSPVLVIFEDNKRPSGIPERFAGSNSGNRATLTIRGTQAEDEADYYCQAWDSSWVFGGGTQLTVL
notes: Light-chain-shuffled variant of XPA.85.017
B2: XPA.85.335 (antibody, V domains shown)
VH: B1 VH
VL: QSVLTQPPSVSAAPGQRVTISCSGNTSNIGNNFVSWYQQLPGTAPKLLIYDDNKRPSGIPDRFSGSKSGTSATLGISGLQTGDEADYYCGTWDNSLNPPWVFGGGTQLTVL
notes: as for B1
B3: XPA.85.338 (antibody, V domains shown)
VH: B1 VH
VL: SYELTQPPSVSVAPGQTATITCSGDKLGDKYASWYQQKPGQSPVLVMFENRDRPSGIPDRFSGSNSGNTATLTISGTQAMDEADYYCQAWDSSTAWVFGGGTQLTVL
notes: as for B1
B4: XPA.85.337 (antibody, V domains shown)
VH: B1 VH
VL: SYVLTQPPSVSVAPGQTATITCSGDDFGDKYVSWYQQKPGQSPLLVIFQDNERPSGIPERFSGSNSGNTATLTISGTQAMDEADYYCQAWDSNWVFGGGTKVTVL
notes: as for B1
B5: XPA.85.336 (antibody, V domains shown)
VH: B1 VH
VL: QSVLTQPPSVSAAPGQKVTISCSGTGSNIGSNYVAWYQQLPGTAPKLLIYDDNKRPSGTPDRFSGSKSGTSATLVIAGLQTGDEADYYCGTWDNTLNVGGVFGGGTQLTVL
notes: as for B1
B6: XPA.85.332 (antibody, V domains shown)
VH: QMQLVQSGAEVKKPGSSVKVSCKASGGTFSSYAISWVRQAPGQGLEWMGGIIPIFGTANYAQKFQGRVTITADESTSTAYMELSSLRSEDTAVYYCARGYVVARLWGQGTLVTVSS
VL: ETTLTQSPAFMSASVGDRVTITCQASQDINNFLNWYQQKPGKAPKFLIYDASNLEKGVPSKFSGRGSGTEFTLTISSLQPEDIATYYCQQYRDFPLTFGQGTRLEIK
notes: Light-chain-shuffled variant of XPA.85.012
B7: XPA.85.333 (antibody, V domains shown)
VH: B6 VH
VL: DVVMTQTPLSLSVTPGQPASISCKSSQSLLHIDGKAYLYWYLQKPGQSPHLLIREVSTRFSGVSDRFTGSGSGTDFTLEISRVEAEDVGVYYCMQGLHLPPTFGQGTKVEIK
notes: as for B6

Columns and labels:
[1] = biological target: T1, human PTH1R overexpressed on CHO cells; test: cell-based or functional assay
[2] = biological target: T2, mouse PTH1R overexpressed on CHO cells; test: cell-based or functional assay
[3] = biological target: T3, rat PTH1R on UMR106 cells; test: cell-based or functional assay
[4] = biological target: T4, human PTH1R on Saos-2 cells (endogenous); test: cell-based or functional assay
[5] = biological target: T5, recombinant N-terminal extracellular …; test: SPR, IgG captured, ECD injected
Procedure: An anti-human IgG-Fc CMS sensor chip (GE Healthcare) was prepared using standard amine coupling as described by the manufacturer's protocol for the capture Ab on a BIACORE 4000 system (GE Healthcare). Briefly, the chip surface was activated with a 10 minute injection at 10 μL/minute of a freshly mixed 1:1 solution of 0.1 M N-Hydroxysuccinimide (NHS) and 0.4 M 1-Ethyl-3-(3-dimethylaminopropyl) carbodiimide hydrochloride (EDC). Following the activation injection, 15 ug/mL anti-human IgG-Fc antibody in acetate pH 4.5 was injected at 10 μL/minute for 10 minutes to achieve a high density capture surface. 7 minutes of 1M Ethanolamine hydrochloride-NaOH pH 8.5 was injected to block the surface. The NHS, EDC, and Ethanolamine used were from the BIACORE Amine Coupling Kit.
Kinetic Analysis was performed using HBS-EP+(Teknova) with 2.5 mg/mL BSA (Sigma Aldrich, St. Louis Mo.). Antibodies were diluted to 0.5 μg/mL and captured to achieve a surface density of 100 to 200 RU. […] Injections were performed at 30 μL/minute for 240 seconds with a 360 second dissociation time. Regeneration was then performed with one 60 second injection 3M MgCl.
The data were analyzed using BIACORE 4000 Evaluation Software and was double referenced by subtracting both the blank flow cell data and the averaged bracketing blank injections. The data was fit by simultaneously fitting the an off-rate (kd) and on-rate (kₐ), and calculating the KD as KD=kd/kₐ.

[6] = biological target: T1, human PTH1R overexpressed on CHO cells; test: flow cytometry on CHO cells, 24 hr at 4 C
Procedure: (§1) To characterize antibody binding to PTH1R, cells were labeled with either CellTrace™ CFSE or CellTrace™ Violet. Unlabeled CHOK1 parent, CHO human PTH1R labeled with CellTrace™CFSE, and CHO mouse PTH1R labeled with CellTrace™Violet were pooled together and stained with increasing concentrations of antibody. Antibodies were incubated for 24 hr at 4° C. followed by two washes with FACS Buffer (0.5% BSA, 0.1% NaN3 in DPBS). Cells were then incubated with Allophycocyanin (APC) AffiniPure F(ab′)₂ Fragment Goat Anti-Human IgG (H+L) (Jackson ImmunoResearch, West Grove, Pa.) for 20 minutes at 4° C. Followed by two washes, cells were resuspended in FACS Buffer. Samples were acquired using BD Cytometer (BD Biosciences, San Jose, Calif.) and data were analyzed using FlowJo (FlowJo, LLC, Ashland, Oreg.) and Prism (GraphPad Software, La Jolla, Calif.).

[7] = biological target: T2, mouse PTH1R overexpressed on CHO cells; test: flow cytometry on CHO cells, 24 hr at 4 C
Procedure: as §1

[8] = biological target: T1, human PTH1R overexpressed on CHO cells; test: cell-based or functional assay; remark: listed apart in the source
[9] = biological target: T2, mouse PTH1R overexpressed on CHO cells; test: cell-based or functional assay; remark: listed apart in the source
[10] = biological target: T3, rat PTH1R on UMR106 cells; test: flow cytometry, 1 hr at 4 C

Row | Binder | EC50 of PTH(1-34), cAMP assay, with 267 nM IgG [1] [nM] | EC50 of PTH(1-34), cAMP assay, with 267 nM IgG [2] [nM] | EC50 of PTH(1-34), cAMP assay, with 267 nM IgG [3] [nM] | EC50 of PTH(1-34), cAMP assay, with 267 nM IgG [4] [nM] | EC50 of PTHrP(1-34), cAMP assay, with 267 nM IgG [4] [nM] | Kd [5] [nM] | koff [5] [s⁻¹] | kon [5] [M⁻¹ s⁻¹] | EC50 [6] [nM] | EC50 [7] [nM] | IC50, inhibition of PTH(1-34)-induced cAMP accumulation [8] [nM] | IC50, inhibition of PTHrP(1-34)-induced cAMP accumulation [8] [nM] | IC50, inhibition of PTHrP(1-34)-induced cAMP accumulation [9] [nM] | binding result [10]
1 | B1 | 0.404 | 0.614 | 8.1 | 4.17 | 11.8 | 0.75 | 0.0011 | 1.4e+06 | 0.167 | 0.322 |  |  |  | 
2 | B2 | 0.0429 | 4.54 |  |  | 6.41 | 2.4 | 0.0019 | 800000 | 0.265 | 0.384 |  |  |  | 
3 | B3 | 0.244 | 1.8 | 7.86 | 32.8 | 33 | 0.43 | 0.00057 | 1.3e+06 | 0.181 | 0.68 |  |  |  | 
4 | B4 | 0.107 | 0.219 | 2.88 |  | 27.1 | 0.75 | 0.00046 | 610000 | 1.26 | 3.27 |  |  |  | 
5 | B5 | 0.0181 | 0.144 |  |  | 23.6 | 17 | 0.019 | 1.1e+06 | 0.342 | 14.7 |  |  |  | 
6 | B6 |  |  |  |  |  | 0.71 | 0.0017 | 2.4e+06 |  |  | 12.1 | 5.03 | 2.3 | binds
7 | B7 |  |  |  |  |  | 0.3 | 0.00054 | 1.8e+06 |  |  | 11.4 | 5.61 | 2.04 | binds
